# Assay results published in PMC8032703.
# Experiments:
# [1] = target: recombinant FlaB (Vibrio vulnificus MO6-24/O)
# [2] = target: recombinant FlaB (Vibrio vulnificus MO6-24/O); remark: listed apart in the source
# [3] = target: FlaBΔC1 (truncated FlaB, from M1 to A287) (Vibrio vulnificus MO6-24/O)
# [4] = target: recombinant FlaB (Vibrio vulnificus MO6-24/O); remark: listed apart in the source
# [5] = target: FlaBΔC0 (truncated FlaB, from M1 to S332) (Vibrio vulnificus MO6-24/O)
# [6] = target: FlaBΔN0C0 (truncated FlaB, from L54 to S332) (Vibrio vulnificus MO6-24/O)
# [7] = target: FlaBΔN1 (truncated FlaB, from K162 to G377) (Vibrio vulnificus MO6-24/O)
# [8] = target: recombinant FlaB (Vibrio vulnificus MO6-24/O); remark: listed apart in the source
Substance,"averaged EC50 of rDegQ for in vitro proteolysis of 1 μM rFlaB, as given for comparison with the FlaC mutant (Fig. 7b) [1]","EC50 of rDegQ (0-1.2 μM) proteolysing 50% of 1 μM rFlaB in vitro (SDS-PAGE densitometry), representative experiment [2]",averaged EC50 of rDegQ for in vitro proteolysis of 1 μM FlaBΔC1 [3],averaged EC50 of rDegQ for in vitro proteolysis of 1 μM rFlaB (three independent experiments) [4],averaged EC50 of rDegQ for in vitro proteolysis of 1 μM FlaBΔC0 [5],averaged EC50 of rDegQ for in vitro proteolysis of 1 μM FlaBΔN0C0 [6],averaged EC50 of rDegQ for in vitro proteolysis of 1 μM FlaBΔN1 [7],protection of 1 μM rFlaB from proteolysis by 1.08 μM rDegQ with rFlaJ 0-6.67 μM; percent of rFlaB left at 0.56 μM FlaJ [8]
recombinant DegQ (serine protease of the HtrA family) (enzyme),0.14 µM,0.14 µM,0.34 µM,0.13 µM,0.31 µM,0.32 µM,0.42 µM,
recombinant FlaJ (flagellin-specific chaperone) (natural protein),,,,,,,,77%
